The target in the first test is Human IgG1 Fc wt (residues 216-447) with G2F N-glycan (human). The experiment in a line: pull-down.
One may read the Kd as the equilibrium constant for the complex coming apart. As for “GFP-FcγRIIIa, extracellular region of human FcγRIIIa (residues 19-193, V158 allotype) (from UniProt P08637 19-193) (receptor)”, the Kd stood at 0.5 µM.

The target in another test is GFP-FcγRIIIa, extracellular region of human FcγRIIIa (residues 19-193, V158 allotype) (human) (UniProt P08637). The experiment in a line: ITC.
As to “Human IgG1 Fc wt (residues 216-447) with G2F N-glycan (domain or fragment)”, the Kd was 1.2 µM.

Another test has the same target. The experiment in a line: SPR.
In the case of “Human IgG1 Fc F241S with G2F N-glycan (domain or fragment)”, the Kd was determined as 1.5 µM.
In turn, “Human IgG1 Fc K246F with G2F N-glycan (domain or fragment)” gave a Kd of 0.34 µM.
Same read-out and setting: the result for “Human IgG1 Fc F241I/F243I with a single GlcNAc residue (domain or fragment)” reads 6.3 µM.
Same read-out and setting: the result for “Human IgG1 Fc F243S with G2F N-glycan (domain or fragment)” reads 1.9 µM; that for “Human IgG1 Fc F241I with G2F N-glycan (domain or fragment)”, 2.1 µM; that for “Human IgG1 Fc F241S/F243S with a single GlcNAc residue (domain or fragment)”, 3.5 µM.
The same measure, in the same setting: the result for “Human IgG1 Fc F241I/F243I with G2F N-glycan (domain or fragment)” reads 10 µM; that for “Human IgG1 Fc F241S/F243S with G2F N-glycan (domain or fragment)”, 29 µM; that for “Human IgG1 Fc wt (residues 216-447) with G2F N-glycan (domain or fragment)”, 0.55 µM.
On to “Human IgG1 Fc wt with a single GlcNAc residue (GlcNAc-Fc) (domain or fragment)”, for which the Kd is 2.4 µM.

Source of the values: publication PMC4192013.
